From the DeepSol protein solubility set come the findings set out here.

The data set in a line: soluble on expression in E. coli; label from the status in PepcDB or PDB records.
Regarding “MSREILTVVETVSNEKGVSREAIFEALEQALVAATKKKFYEGTNAEEAQLRVEIDRKTGDYRTFRQWTLVADEDHEMPACQDAISDVDASKWSIGDVRELEVESIEFGRIAAQIAKQVIVQKIREAERALIADAYESKVGELIYGEVKKQTKDGFIIDLGDNAEAYLAREEMIAKEILRPKQRMNAILYSVNREGRGAQLLLSRARPEMLMALMKKEIPEISEEIIEIKAAARQPGVRAKIAVKTNDHRIDPVGACIGMRGTRIQAVQQELNGERIDVVVWSDDPAQYIASALEPADVSGIVLDEDTRSADIIFATNDQLARAIGSQGQNVRLASELTGYKLDMMLEEEYRARQQNEAQQYLDMFVTRLDIEEDLAMALVEMGFTSLEEIAYVPPETFDEIELDQELVELLQSRAKEAALTDALKQQENVQEPSVELLAMAGMTQELAYALAARGVVTVDDLADQATDDISDIEGLSEEKAGQLIMKARESWFNLEHHHHHH”, the “soluble on expression in E. coli” value is “soluble”. The result for “DVLAVTSCPSGVAHTFLAAKSLEKAACALGIKIKVETQGANGVINRITEKDIEKAKFVIFAHDVAIKEPERFRKIKVLDVTTKDAMLNATALLQARRVS” reads “not soluble”; that for “MGSDKIHHHHHHMLTLANVALLSQLALQQPGETDKKPEDCSFEQIEFTINFAVGRLNHCEKTGDNQYKLFLEPEREKINPSPWYAFAVKNKTETSQTIDITLVASEGVSRYKPKRSEGDDIWHAIPFSEGDGTLQFELTLSGQTKEYIAGQEIIDNVHYIEWLSSLIKEPQQTEVISLGVSSEGRNLAALEHRVESSDKWIILIGRQHPPEVTGALALLHFGELLFSDEPYVVKFRQKYNILLVPNMNPDGVYHGNWRLTAAGIDMNRDWKNLTLPETQAMANYLKKLVKDGGKIEFAIDFHSTRKNVFYTMPEDYEPRSGVPLRNPQRVYNWIEEIEELVGSVELDYQPGAHPESGVFKQFIADEFAAHAVTYEVSDNEERNNIKKVAEAALISLINRLD”, “not soluble”; that for “MHTDINALFAALWQDYIQMTPSAAKVHELLGHGKPIINDHIALRTFNIAKVNLAVLAEHFTSLGYVACGDYKFEQKKLIAKHFEHPDATQPKVFISELLVEEFSSALQSTIQGLIAQVDEQATKADNFIYSGRHWTLDSKTYEALLEESEYAAWVAAFGYRANHFTVSINHLEGFDTLESVNDALKQAGFVLNTSGGEIKGSPEVLLEQSSTMADKIAVEFSDATVEIPSCFYEFALRYPKANGELYTGFVAASADKIFESTNAKKAAAALEHHHHHH”, “not soluble”. In the case of “MSAVMATYLLHDETDIRKKAEGIALGLTIGTWTDLPALEQEQLRKHKGEVVAIEELGESERVNAYFGKRLKRAIVKIAYPTVNFSADLPALLVTTFGKLSLDGEVRLLDLEFPDEWKRQFPGPRFGIDGIRDRVGVHNRPLLMSIFKGMIGRDLAYLTSELKKQALGGVDLVKDDEILFDSELLPFEKRITEGKAALQEVYEQTGKRTLYAVNLTGKTFALKDKAKRAAELGADVLLFNVFAYGLDVLQALREDEEIAVPIMAHPAFSGAVTPSEFYGVAPSLWLGKLLRLAGADFVLFPSPYGSVALEREQALGIARALTDDQEPFARAFPVPSAGIHPGLVPLIIRDFGLDTIVNAGGGIHGHPDGAIGGGRAFRAAIDAVLAGRPLRAAAAENEALQKAIDRWGVVEVEA”, the “soluble on expression in E. coli” value is “soluble”. For “MHYQPKQDLLQNRIILVTGASDGIGREAALTYARYGATVILLGRNEEKLRRVAQHIADEQHVQPQWFTLDLLTCTAEECRQVADRIAAHYPRLDGVLHNAGLLGEIGPMSEQDPQIWQDVMQVNVNATFMLTQALLPLLLKSDAGSLVFTSSSVGRQGRANWGAYATSKFATEGMMQVLADEYQNRSLRVNCINPGGTRTSMRASAFPTEDPQKLKTPADIMPLYLWLMGDDSRRKTGMTFDAQPGRKPGIAQ” the value was “not soluble”. For “MGSDKIHHHHHHMAEKTIVEKLQLTKYKEAVILNQPNGADYFQNLANYEEKLADKQYDLIFDFVETLEELITFVQKVIAENKLAANGYLFFAYPKKGNKKFATYVHRDELMPALKTDEEGYVDGSTLKFTRMVALDETYTVVGLKEAAKLKAKGVKKNNPSADEYADHVPLVAEFLADKGDLQAFYNNLATGYQRVWARYIYSAKQPATQEKRRLEMVDILSQGYKTKDLYRQGKK” the value was “not soluble”; for “ANSFLEEMKKGHLERECMEETCSYEEAREVFEDSDKTNEFWNKYKDGDQCETSPCQNQGKCKDGLGEYTCTCLEGFEGKNCELFTRKLCSLDNGDCDQFCHEEQNSVVCSCARGYTLADNGKACIPTGPYPCGKQTLE”, “soluble”.
